B1: library; numbered along this chain (parent)
chain: MATDAALRRLLRLHRTEIAVAVDSAFPLLHALADHDVVPEDKFQETLHLKEKEGCPQAFHALLSWLLTQDSTAILDFWRVLFKDYNLERYGRLQPILDSFPKDVDLSQPRKGRKPPAVPKALVPPPRLPTKRKASEEARAAAPAALTPRGTASPGSQLKAKPPKKPESSAEQQRLPLGNGIQTMSASVQRAVAMSSGDVPGARGAVEGILIQQVFESGGSKKCIQVGGEFYTPSKFEDSGSGKNKARSSSGPKPLVRAKGAQGAAPGGGEARLGQQGSVPAPLALPSDPQLHQKNEDECAVCRDGGELICCDGCPRAFHLACLSPPLREIPSGTWRCSSCLQATVQEVQPRAEEPRPQEPPVETPLPPGLRSAGEEVRGPPGEPLAGMDTTLVYKHLPAPPSAAPLPGLDSSALHPLLCVGPEGQQNLAPGARCGVCGDGTDVLRCTHCAAAFHWRCHFPAGTSRPGTGLRCRSCSGDVTPAPVEGVLAPSPARLAPGPAKDDTASHEPALHRDDLESLLSEHTFDGILQWAIQSMARPAAPFPS

Variants of: B1
Assay: AIRE transcriptional activation functional score (insulin promoter-GFP; nonsense median 0, synonymous median 1) (normalised score); higher = higher AIRE activity (more reporter activation)
Settings: with insulin promoter-GFP reporter in HEK293
Procedure: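 Deep mutational scan of full-length human AIRE (codon-optimized cDNA, DT-POPCode NNN libraries over three regions) integrated at a Bxb1 landing pad in HEK293 cells carrying an insulin core promoter-GFP reporter at a Flp-In site. Cells were sorted for the top 10% GFP about 14 days after transfection. Variant frequency log-ratios (select vs non-select, TileSeq) were rescaled so that the nonsense median is 0 and the synonymous median is 1, then averaged over biological replicates.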

AIRE transcriptional activation functional score: each site, then its substitutions
P280: T 1.04; I 0.993; N 1.37; L 1.28; C 0.574; Q 1.14; H 1.04; A 0.981; V 1.2; W -0.397; M 1.23; G 1.17; D 0.642; K 0.978; E 1.13; R 1.01; Y 1.42; S 1.1; F 1.58
L285: Y 0.979; V 0.989; H 0.689; N 0.918; T 0.845; C 0.894; K 0.713; A 1.37; R 1.02; G 0.429; S 0.921; P 1.17; F 0.835; Q 1.22; D 1.56; I 1.02
L283: R 1; N 0.486; V 1.12; P 0.953; M 1.34; H 1.15; A 1.02; F 1.17; I 0.854; S 1.01; G 0.798; Y 1.19; T 1.02; K 1.19; E 0.987; D 1.01; Q 0.784; C 0.771; W 1.14
P286: T 1.07; K 0.495; D 0.448; Q 1.07; F 1.54; I 0.986; G 1.05; W 1.61; A 0.97; C 0.46; V 1.26; E 1; H 0.652; N 0.454; S 0.834; R 1.17; Y 1.65; L 1.14; M 1.36
V279: N 0.603; E 1.08; W 1.4; R 1.04; H 1.06; P 1.06; Y 1.26; L 1; C 1.36; Q -0.249; A 1.45; M 1.34; S 1.24; T 0.815; K 0.637; I 0.721; G 1.08; D -0.0439; F 1.69
S278: Y 1.29; N 0.723; T 1.23; L 1.01; V 1.09; I 1.04; W 1.19; Q 1.16; R 0.819; K 1.28; P 1.12; M 1.35
A281: D 0.674; I 0.957; E -0.175; T 0.867; H 1.11; S 0.99; L 1.31; Y 1.32; V 0.872; K 1.67; Q 1.02; C 0.996; F 1.63; R 1.15; W 1.53; N 0.445; P 0.84; G 1.5; M 0.425
A284: W 1.16; H 0.932; P 0.905; V 1.06; C 0.943; L 1.02; K 0.964; G 1.03; I 1.23; D 1.06; T 0.876; S 1.1; F 1.2; N 0.828; R 1.12; Q 1.39; Y 1.32; E 0.63; M 0.962
P282: D 1.05; Y 1.17; H 0.91; M 1.1; Q 0.976; I 1.43; T 1.27; A 0.929; R 0.839; N -0.335; K 1.2; F 0.638; W 1.1; C 2.16; E 0.555; L 1.31; V 1.38; S 0.614; G 1.03
S287: A 1.17; G 1.22; E 0.811; C 1.07; D 0.579; F 0.994

From the supplement of paper PMC12667976
